Key:
[1] = target: Papain from papaya latex (Sigma) (papaya) (UniProt P00784)
[2] = target: Papain from papaya latex (Sigma) (papaya) (UniProt P00784); remark: listed apart in the source

Row | protease activity (OD), Protease Assay Kit [1] | protease activity (% of papain alone), Protease Assay Kit [2] | Substance
1 | 0.0005 OD | – | Recombinant Human Cystatin SN Protein (recombinant CST1, R&D Systems)
2 | – | 64.3% | Recombinant human Cystatin SA protein (recombinant CST2, Abcam)

Source: US20230159659A1
